Laboratory results as given in paper PMC6230950.

Key:
[1] = molecular target: commercial purified human IgG1 (human); test: SPR; Biacore X100, HBS-EP+; TB-PIGS captured on protein A coupled to a CM5 chip; FcγR as analyte, 40 μL/min; affinity of one FcγR for a single arm
[2] = molecular target: commercial purified human IgG1 (human); test: SPR; Biacore X100; protein A on a CM5 chip, IgG or TB-PIGS captured; human CD32a as analyte, 4000 nM to 125 nM in 2-fold dilutions; HBS-EP+; 40 uL/min, contact 90 s; steady-state affinity analysis
[3] = molecular target: commercial purified murine IgG2a (mouse); test: SPR; Biacore X100; protein A amine-coupled on a CM5 chip, IgG or TB-PIGS captured on it; CD64 (human or mouse) as analyte, 240 nM down to 1.875 nM in 1:2 dilutions; HBS-EP+; 40 uL/min, contact 135 s, dissociation 600 s; 1:1 model, but for human TB-PIGS from wild-type plants the 'Heterogeneous antibody with aglycosylation' model (two sets of values)

human CD64 (FcγRI) (from UniProt P12314 16-292) (receptor)
Kd [1]: 0.27 nM

human CD32a (FcγRIIa) (from UniProt P12318 34-217) (receptor)
Kd [2]: 880 nM

human CD16a (FcγRIIIa) (from UniProt P08637 17-208) (receptor)
Kd [1]: 673 nM

B1: mouse CD64 (FcγRI) (receptor)
chain: EVVNATKAVITLQPPWVSIFQKENVTLWCEGPHLPGDSSTQWFINGTAVQISTPSYSIPEASFQDSGEYRCQIGSSMPSDPVQLQIHNDWLLLQASRRVLTEGEPLALRCHGWKNKLVYNVVFYRNGKSFQFSSDSEVAILKTNLSHSGIYHCSGTGRHRYTSAGVSITVKELFTTPVLRASVSSPFPEGSLVTLNCETNLLLQRPGLQLHFSFYVGSKILEYRNTSSEYHIARAEREDAGFYWCEVATEDSSVLKRSPELELQVLGPQSSAP
Kd [3]: 4.8 nM
koff [3]: 0.0105 s⁻¹
kon [3]: 2.18e+06 M⁻¹ s⁻¹
